One assay has as its target T1, ECF17_1691.
T1 chain: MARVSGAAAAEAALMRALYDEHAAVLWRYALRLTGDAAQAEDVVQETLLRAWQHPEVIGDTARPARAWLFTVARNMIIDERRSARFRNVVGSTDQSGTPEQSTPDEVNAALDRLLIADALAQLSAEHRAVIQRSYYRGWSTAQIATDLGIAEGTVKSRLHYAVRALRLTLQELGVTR

The next assay deals with T2, ECF01_3473.
T2 chain: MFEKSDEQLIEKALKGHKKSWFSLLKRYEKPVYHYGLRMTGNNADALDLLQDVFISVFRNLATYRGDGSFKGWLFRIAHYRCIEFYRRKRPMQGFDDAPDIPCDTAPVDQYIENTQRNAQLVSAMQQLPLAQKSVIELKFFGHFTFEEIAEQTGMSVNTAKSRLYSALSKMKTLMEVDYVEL

The target in another assay is T3, ECF11_987.
T3 chain: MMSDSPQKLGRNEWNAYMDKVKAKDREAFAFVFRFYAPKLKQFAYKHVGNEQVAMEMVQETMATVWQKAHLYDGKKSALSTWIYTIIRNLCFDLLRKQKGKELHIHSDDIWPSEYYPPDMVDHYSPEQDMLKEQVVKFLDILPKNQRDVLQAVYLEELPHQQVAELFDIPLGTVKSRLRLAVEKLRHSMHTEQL

Another assay concerns the target T4, ECF31_34.
T4 chain: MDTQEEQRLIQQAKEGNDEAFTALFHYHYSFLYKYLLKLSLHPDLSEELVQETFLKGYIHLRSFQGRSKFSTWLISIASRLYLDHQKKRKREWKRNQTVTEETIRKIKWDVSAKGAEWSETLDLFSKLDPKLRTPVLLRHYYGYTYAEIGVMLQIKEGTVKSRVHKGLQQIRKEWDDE

The next assay concerns the target T5, ECF17_1458.
T5 chain: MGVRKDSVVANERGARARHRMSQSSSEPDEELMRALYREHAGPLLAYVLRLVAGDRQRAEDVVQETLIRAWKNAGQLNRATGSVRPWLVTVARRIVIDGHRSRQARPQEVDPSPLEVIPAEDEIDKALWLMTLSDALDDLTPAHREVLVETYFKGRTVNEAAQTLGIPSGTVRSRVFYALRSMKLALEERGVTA

Another assay concerns the target T6, ECF20_992.
T6 chain: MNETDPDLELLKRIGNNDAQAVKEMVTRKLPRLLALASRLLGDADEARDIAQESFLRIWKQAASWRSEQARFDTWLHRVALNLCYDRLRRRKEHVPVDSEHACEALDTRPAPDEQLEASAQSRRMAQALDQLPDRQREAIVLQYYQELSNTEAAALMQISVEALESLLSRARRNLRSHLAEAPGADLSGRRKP

The next assay addresses T7, ECF15_436.
T7 chain: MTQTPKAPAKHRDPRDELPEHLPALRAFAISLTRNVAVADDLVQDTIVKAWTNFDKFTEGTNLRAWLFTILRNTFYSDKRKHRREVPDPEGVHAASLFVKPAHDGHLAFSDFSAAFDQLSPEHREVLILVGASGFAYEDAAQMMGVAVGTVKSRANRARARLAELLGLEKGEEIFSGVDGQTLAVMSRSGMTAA

For a further assay, the target named is T8, ECF14_1324.
T8 chain: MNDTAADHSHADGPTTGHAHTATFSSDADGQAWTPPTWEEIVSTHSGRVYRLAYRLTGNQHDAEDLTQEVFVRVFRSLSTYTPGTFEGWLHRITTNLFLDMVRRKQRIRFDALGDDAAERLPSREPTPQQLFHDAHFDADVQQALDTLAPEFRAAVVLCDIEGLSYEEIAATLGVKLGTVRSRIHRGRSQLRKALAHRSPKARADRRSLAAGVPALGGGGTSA

The target in the next assay is T9, ECF35_3582.
T9 chain: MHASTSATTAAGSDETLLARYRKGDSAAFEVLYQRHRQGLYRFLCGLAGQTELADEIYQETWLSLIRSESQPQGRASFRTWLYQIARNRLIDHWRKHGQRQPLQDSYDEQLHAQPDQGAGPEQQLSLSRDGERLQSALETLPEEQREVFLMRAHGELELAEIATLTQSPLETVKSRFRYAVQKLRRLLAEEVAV

The next assay addresses T10, ECF25_1643.
T10 chain: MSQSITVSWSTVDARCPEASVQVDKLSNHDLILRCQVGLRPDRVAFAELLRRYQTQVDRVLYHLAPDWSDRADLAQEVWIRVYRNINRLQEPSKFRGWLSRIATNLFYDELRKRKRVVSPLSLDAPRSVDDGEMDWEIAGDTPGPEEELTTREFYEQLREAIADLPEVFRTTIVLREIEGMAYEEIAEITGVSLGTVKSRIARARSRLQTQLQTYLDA

A further assay concerns the target T11, ECF12_807.
T11 chain: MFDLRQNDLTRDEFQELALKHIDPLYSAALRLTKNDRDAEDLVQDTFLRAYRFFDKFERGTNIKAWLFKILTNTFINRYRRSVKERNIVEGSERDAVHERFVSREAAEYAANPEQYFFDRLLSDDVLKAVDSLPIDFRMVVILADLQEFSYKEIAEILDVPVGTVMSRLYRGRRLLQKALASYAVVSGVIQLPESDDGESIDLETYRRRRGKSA

The next assay addresses T12, ECF02_915.
T12 chain: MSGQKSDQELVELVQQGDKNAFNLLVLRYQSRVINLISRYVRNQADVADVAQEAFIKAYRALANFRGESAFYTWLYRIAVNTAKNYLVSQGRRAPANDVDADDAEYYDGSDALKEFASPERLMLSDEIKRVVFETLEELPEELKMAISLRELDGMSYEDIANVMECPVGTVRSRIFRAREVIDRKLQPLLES

The target in another assay is T13, ECF22_4450.
T13 chain: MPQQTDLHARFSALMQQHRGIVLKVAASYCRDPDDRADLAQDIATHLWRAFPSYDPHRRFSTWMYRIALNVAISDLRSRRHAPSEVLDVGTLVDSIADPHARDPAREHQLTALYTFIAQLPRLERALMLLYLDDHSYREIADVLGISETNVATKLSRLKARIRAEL

In a further assay the target is T14, ECF22_1147.
T14 chain: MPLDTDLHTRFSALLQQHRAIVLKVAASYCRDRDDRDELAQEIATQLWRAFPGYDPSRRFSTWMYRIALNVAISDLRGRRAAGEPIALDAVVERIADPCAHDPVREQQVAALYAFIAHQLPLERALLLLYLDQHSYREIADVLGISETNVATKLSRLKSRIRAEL

Values joined by “and” are separate entries in the source; they are usually repeats but may differ in a detail not shown here. Equal values may be shown once.

B1: AS15_436 (protein)
chain: MAQSTEPKASPQEATAKGGDNTKGKSRKELQQQIDENLRRVYEEALVQEVPDRFAMLLDQLRQKGTGK
Take B1: the fold repression turned out to be 24.7 with ECF26_4464; 4.15 with ECF17_1691; 4.77 in the assay with ECF01_3473; 2.8 in the assay with ECF11_987; 3.29 with ECF31_34; 5.96 with ECF17_1458. For the same molecule, the fold repression with ECF20_992 is 1.95; in the assay with ECF15_436, 46.1; in the assay with ECF14_1324 it was 9; in the assay with ECF35_3582 it was 1.1; with ECF25_1643 it was 1.19 and 1.27; with ECF12_807, 5.3. Also, the figures for the fold repression with ECF02_915, in the assay with ECF22_4450 and with ECF22_1147 were 1.55, 4.63 and 6.02, respectively.

B2: AS16_3622 (protein)
chain: MMKTDELISLLATAEGPVDRHALARRLGLALLAGLLGALLLTVALYGVRSDLAEVARTPLFWAKVALPTSLALLGLWLTQRLARPGVRGGALWGLLGVPLLLVWLGAAISLFGAPPEARADLIFGRTWRTCALNITLLSTPVFIAVFWALRGLAPTRLRQAGAAGGLLAGSTATLVYCLHCPEMGVPFWGLWYLLGMLVPTLLGAVLGPRLLRW
For B2, the fold repression with ECF26_4464 was 8.91; with ECF17_1691, 2.43; with ECF01_3473, 2.63; with ECF11_987, 4.23; with ECF31_34, 2.85; in the assay with ECF17_1458 it was 4.75. Besides, the fold repression is 2.48 in the assay with ECF20_992; 4.75 with ECF15_436; 8.8 with ECF14_1324; 1.67 in the assay with ECF35_3582; 1.55 and 1.67 with ECF25_1643; 7.12 with ECF12_807. In addition, the fold repression amounted to 1.26 in the assay with ECF02_915, 4.51 with ECF22_4450 and 8.27 with ECF22_1147.

B3: AS16_973 (protein)
chain: MKTDDLIALLAAGEGPVPRHAVGRRMAVAALGGLTAALLLTITLYGVRSDITEVAQTPLFWGKVAFPTSLALIGLWLTSRLARPGGKGAAGWKMLGLPLLLVWCGAAVSIAGAPVDARADLLFGRTWRTCALNIALLSVPAFVTVFWALKGLAPTRLRLAGAAGGLLAGSSATVAYCLHCPEMGVPFWGVWYVLGMLVPTVLGAWWGPRMLRW
For B3, the fold repression was found to be 1.46 with ECF26_4464; 0.852 with ECF17_1691; 0.602 with ECF01_3473; 1.32 with ECF11_987; 0.696 with ECF31_34; 1.11 with ECF17_1458. Besides, the fold repression with ECF20_992 was 0.636; with ECF15_436, 0.884; in the assay with ECF14_1324, 0.887; with ECF35_3582, 0.722; in the assay with ECF25_1643 it was 0.594 and 0.667; with ECF12_807, 0.905. Further, the fold repression with ECF02_915 came to 0.403; with ECF22_4450, 2.62; with ECF22_1147 it was 1.2.

B4: AS15_524 (protein)
chain: MNFGVEDMIEHVPMEDKRKGAAALDEARLRQQAIGVKLRQMFDEVVNEPVPDEFLAILRKAERPAGGE
In the case of B4, the fold repression with ECF26_4464 was 28.2; with ECF17_1691 it was 5.16; in the assay with ECF01_3473 it was 9.89; with ECF11_987, 3.74; with ECF31_34 it was 6.57; with ECF17_1458 it was 9.33. In addition, the fold repression with ECF20_992 was 5.56; with ECF15_436 it was 16.7; with ECF14_1324 it was 10.5; with ECF35_3582 it was 2.42; in the assay with ECF25_1643 it was 2.89 and 3.07; with ECF12_807, 5.51. For the same molecule, the fold repression with ECF02_915 amounted to 2.67; with ECF22_4450 it was 11.1; with ECF22_1147 it was 6.96.

B5: AS14_1324 (protein)
chain: MSGSRPEPEGHLAEQHLGDRLSALVDGELGHDARERVLAHVATCPKCKAEVDAQRRLKNVFAEAAPPAPSESFLARLQGLPGGGDSDGGGSPFSGLPGGFGASAASGVFGPRRDERFEFDYVPAGSHTPVLPSATSGRGFRIHEVGRHESDRSASRGLRFAFAAAGAVSLAAIALGGVTLGTPDTTTEARGSGSGSNVTPLRTPGSAAATGSESQRRRTAGPLLGQGQRALGDLPVASTTASAPLLPGMPAPAGGDARQQAVRALTTPVTAGAAAMSPLIRPLEAVPPLSLSSWSAAPEVRPPGLLAAPDPAPSPYPAASPAASSSPLR
On to B5, for which the fold repression is 15.9 with ECF26_4464; 4.81 with ECF17_1691; 8.34 with ECF01_3473; 6.84 with ECF11_987; 5.28 with ECF31_34; 7.16 in the assay with ECF17_1458. For the same molecule, the fold repression in the assay with ECF20_992 was 6.81; in the assay with ECF15_436, 6.5; in the assay with ECF14_1324, 47.4; in the assay with ECF35_3582 it was 4.28; in the assay with ECF25_1643 it was 3.84 and 3.33; in the assay with ECF12_807 it was 8.92. In addition, the figures for the fold repression with ECF02_915, with ECF22_4450 and in the assay with ECF22_1147 were 2.86, 8.4 and 8, respectively.

(Values after paper PMC3817407.)
